Experimental data taken from patent publication US20110039770A1, “INHIBITORS OF PROTEIN KINASE C ISOFORMS AND USES THEREOF” (PHARMAGAP INC., priority 2005, published 2011).
Where a SMILES comes first, the peptide text is derived from it. Where no end group is shown, it is not given here. The star is where a group is joined. PNA(A) = NCCN(CC(=O)*)C(=O)Cn1cnc2c(N)ncnc21

How the values were obtained:
PKC epsilon = biological target: T1, PKC epsilon (Homo sapiens, UniProt Q02156); experiment: Kinase-Glo Luminescent Kinase Assay; assay type: biochemical; parameters: purchased
T1 sequence (Q02156 1-737): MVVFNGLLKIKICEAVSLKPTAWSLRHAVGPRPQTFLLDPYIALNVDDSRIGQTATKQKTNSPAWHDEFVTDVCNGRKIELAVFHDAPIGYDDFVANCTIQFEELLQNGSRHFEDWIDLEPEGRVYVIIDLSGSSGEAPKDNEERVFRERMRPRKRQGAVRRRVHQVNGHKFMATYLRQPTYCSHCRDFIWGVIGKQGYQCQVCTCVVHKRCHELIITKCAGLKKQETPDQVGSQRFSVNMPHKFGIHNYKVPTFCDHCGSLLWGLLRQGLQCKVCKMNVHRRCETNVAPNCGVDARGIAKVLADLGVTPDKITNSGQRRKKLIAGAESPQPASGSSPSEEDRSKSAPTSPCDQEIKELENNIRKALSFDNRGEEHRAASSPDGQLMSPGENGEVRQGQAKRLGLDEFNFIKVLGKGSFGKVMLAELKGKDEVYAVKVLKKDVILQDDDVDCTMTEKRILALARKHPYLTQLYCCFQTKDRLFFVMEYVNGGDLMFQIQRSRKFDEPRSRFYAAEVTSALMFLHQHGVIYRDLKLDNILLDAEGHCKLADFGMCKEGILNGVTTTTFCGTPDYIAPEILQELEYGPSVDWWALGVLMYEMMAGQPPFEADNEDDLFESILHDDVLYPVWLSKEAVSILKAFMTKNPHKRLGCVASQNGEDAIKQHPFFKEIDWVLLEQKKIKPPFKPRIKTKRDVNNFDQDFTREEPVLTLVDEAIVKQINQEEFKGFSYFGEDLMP
Procedure: (§1) Compounds TIM 10, 11, 13, 14, 15, and 18-22 (see Table 28) were tested for their ability to inhibit the activity of PKC-alpha, beta 1, delta and epsilon isoforms the Kinase-Glo™ Luminescent Kinase Assay (Promega, Cat # V6712/3/4) following the manufacturer's instructions.

PKC beta 1 = PKC beta 1 (Homo sapiens, UniProt P05771); experiment: Kinase-Glo Luminescent Kinase Assay; assay type: biochemical; parameters: purchased; settings: for inhibition of PKC beta 1 activity (in words): Kinase-Glo
Procedure: as §1

PKC delta = PKC delta (Homo sapiens, UniProt Q05655); experiment: Kinase-Glo Luminescent Kinase Assay; assay type: biochemical; settings: for inhibition of PKC delta activity (in words): Kinase-Glo
Procedure: as §1

PKC alpha = PKC alpha (Homo sapiens, UniProt P17252); experiment: Kinase-Glo Luminescent Kinase Assay; assay type: biochemical; settings: for inhibition of PKC alpha activity (in words): Kinase-Glo
Procedure: as §1

[1] = system: peripheral blood lymphocytes; experiment: Peripheral blood lymphocyte survival and blastogenic response to mitogens; assay type: cell-based; settings: primary lymphocytes of pigs, mice and human
PKC-β [2] = biological target: T2, PKC-β (Homo sapiens, UniProt P05771); experiment: Competition of PRE with PKC-β antibody binding, Protocol A, IMR-32 lysate
T2 construct: PRE 2 and PRE 3 in IMR-32 Neuroblastoma Cells: Protocol A; endogenous in cells; host or cells: IMR-32 human neuroblastoma cells
Procedure: (§2) Cell lysates from either IMR-32 (human neuroblastoma) cells or C6Cx43 cells (rat glioma transfected cells overexpressing connexin 43) were obtained using standard protocols and the proteins of the lysate were separated by SDS PAGE electrophoresis and electrotransferred onto a nitrocellulose membrane. The membrane was incubated for 30 minutes in blocking buffer (TBST) containing the test peptide at either 5× or 20× the concentrations of the primary antibody. A primary polyclonal antibody specific for PKC-α (Santa Cruz Biotechnology, Inc., CA) was then added (15 μg/ml) and the membrane incubated for a further 45 minutes. Finally, the primary antibody was detected with a secondary antibody conjugated to alkaline phosphatase using standard procedures. The intensity of the band corresponding to PKC-α was assessed by scanning and densitometry using the Gel-Pro software (Media Cybernetics) to obtain relative band intensities (average of 3 replicas). Control assays were conducted as described above except that blocking buffer without peptide was used.
Peptides PRE 1, PRE 2 and PRE 3 (see Table 4) were tested for their ability to interfere with the binding of a PKC-β-specific polyclonal antibody (Santa Cruz Biotechnology, Inc.) to PKC-β using the general protocol described in Example 1. […] It is worth noting in this regard that PKC-α and PKC-β belong to the same sub-group of PKCs (cPKCs).

PKC-α [3] = biological target: T3, PKC-α (Homo sapiens, UniProt P17252); experiment: Competition of PRE with PKC-α antibody binding, Protocol B (peptide added to cell extract before electrophoresis), IMR-32; parameters: endogenous PKC-α in (A) untreated human neuroblastoma (IMR-32) cells; endogenous in cells; host or cells: IMR-32 human neuroblastoma cells; settings: 100 μg
Procedure: Peptides PRE 3 and PRE 4 (see Table 4) were tested for their ability to interfere with the binding of isoform-specific polyclonal antibodies (Santa Cruz Biotechnology, Inc.) to PKC-α, PKC-βI or PKC-βII using the general protocol described in Example 3.

PKC-α [4] = biological target: T3, PKC-α; experiment: Competition of PRE with PKC-α antibody binding on Western blot, Protocol A, IMR-32 lysate; parameters: endogenous PKC-α in (A) untreated human neuroblastoma (IMR-32) cells; endogenous in cells; host or cells: IMR-32 human neuroblastoma cells; settings: IMR-32 cells
Procedure: The ability of the PRE 1, 2 and 3 (see Table 3 above) to interfere with the binding of a PKC-α-specific polyclonal antibody to PKC-α was determined using the following protocol.
as §2
The results are expressed as relative band intensity and as a percentage of the intensity of the corresponding band in the control assay (“Relative intensity (%)”). “% inhibition” relates to the percentage of the PKC-α band that is inaccessible to the antibody.

PKC-β [5] = biological target: T2, PKC-β; experiment: Competition of PRE with PKC-β antibody binding, Protocol B, IMR-32; settings: 100 μg
Procedure: The ability of the peptides PRE 2 and PRE 3 (see Table 4) to interfere with the binding of a PKC-α-specific polyclonal antibody (Santa Cruz Biotechnology, Inc.) to PKC-α was determined using a modified version of the protocol outlined above in which the test peptide was added directly to the cell extract prior to electrophoresis at a concentration of either 5× or 15× the concentration of the protein applied to each well of the gel for the Western blots (20 μg).
Peptides PRE 2 and PRE 3 (see Table 4) were tested for their ability to interfere with the binding of a PKC-β-specific polyclonal antibody (Santa Cruz Biotechnology, Inc.) to PKC-β using the general protocol described in Example 3.

PKC enzymes (cPKCs) = experiment: Phosphorylation of MARCKS peptide by endogenous PKCs in IMR-32 cells; assay type: cell-based, human
[6] = system: LS180 human colon cancer cells; experiment: Survival of doxorubicin-resistant colon cancer cells, trypan blue exclusion; assay type: cell-based; settings: 50 ng/ml; 72 hrs
Procedure: Highly tumourigenic human colon cancer cells (LS180; ATCC # CL-187) which constitutively express multi-drug resistance (MDR) were used for this experiment. LS180 cells were seeded in 6 well plates at a density of 2×10^5. After a 24 hr recovery cells were treated with 50 ng/ml of doxorubicin, 2.5 μM compound TIM 10, or a combination of doxorubicin and compound TIM 10 (2.5 μM and 5 μM) for 72 hrs. Note that compound TIM 10 was added to the cell culture medium; no protocol was used to force the compound into the cell. The cells were then trypsinized and counted using the standard trypan blue dye exclusion assay.

T2 sequence (P05771 whole entry): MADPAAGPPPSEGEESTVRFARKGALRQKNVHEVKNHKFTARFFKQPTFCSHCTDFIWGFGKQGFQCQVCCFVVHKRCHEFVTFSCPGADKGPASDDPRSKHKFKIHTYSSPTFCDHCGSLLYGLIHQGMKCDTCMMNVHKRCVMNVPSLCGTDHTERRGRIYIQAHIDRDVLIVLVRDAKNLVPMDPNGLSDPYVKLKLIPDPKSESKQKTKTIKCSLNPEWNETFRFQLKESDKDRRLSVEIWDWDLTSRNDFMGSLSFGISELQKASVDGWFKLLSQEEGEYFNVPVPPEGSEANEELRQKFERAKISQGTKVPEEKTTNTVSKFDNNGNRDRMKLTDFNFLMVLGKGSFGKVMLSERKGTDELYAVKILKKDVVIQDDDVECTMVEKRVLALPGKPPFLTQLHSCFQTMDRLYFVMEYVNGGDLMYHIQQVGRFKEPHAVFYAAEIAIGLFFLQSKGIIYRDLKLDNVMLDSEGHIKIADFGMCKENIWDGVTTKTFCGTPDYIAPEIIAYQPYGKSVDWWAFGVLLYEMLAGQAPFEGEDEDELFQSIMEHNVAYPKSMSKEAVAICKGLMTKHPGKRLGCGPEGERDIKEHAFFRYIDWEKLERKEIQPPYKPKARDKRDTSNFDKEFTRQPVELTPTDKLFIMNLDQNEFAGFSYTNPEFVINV
Chain of PKC beta 1 (P05771 whole entry): as above
Chain of PKC delta (Q05655 whole entry): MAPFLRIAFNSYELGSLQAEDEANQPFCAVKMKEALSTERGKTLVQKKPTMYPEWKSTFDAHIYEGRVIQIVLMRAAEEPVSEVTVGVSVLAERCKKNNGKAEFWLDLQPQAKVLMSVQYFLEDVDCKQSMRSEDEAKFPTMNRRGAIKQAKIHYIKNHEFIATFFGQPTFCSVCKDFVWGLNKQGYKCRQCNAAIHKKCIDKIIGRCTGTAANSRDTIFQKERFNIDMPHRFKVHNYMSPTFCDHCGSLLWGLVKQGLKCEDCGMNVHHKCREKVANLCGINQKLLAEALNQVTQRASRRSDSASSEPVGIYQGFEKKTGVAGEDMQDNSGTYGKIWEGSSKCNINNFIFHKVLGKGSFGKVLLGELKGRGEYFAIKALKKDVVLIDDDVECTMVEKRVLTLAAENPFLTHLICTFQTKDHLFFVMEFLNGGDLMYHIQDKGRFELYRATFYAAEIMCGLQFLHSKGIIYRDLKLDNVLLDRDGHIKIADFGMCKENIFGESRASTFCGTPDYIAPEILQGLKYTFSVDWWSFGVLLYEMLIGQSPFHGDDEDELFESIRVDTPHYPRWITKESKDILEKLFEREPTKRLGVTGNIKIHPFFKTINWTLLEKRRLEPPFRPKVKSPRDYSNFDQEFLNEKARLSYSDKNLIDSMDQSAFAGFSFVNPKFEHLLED

## Ac—FRRCFRL—(G)7—KDAQNLIGISI—NH2 (Ac-FRRCFRLGGGGGGGKDAQNLIGISI-NH2) [TIM 21, PRE 4 and PKI 4]
PKC epsilon; 5.0 μM
  % Inhibition PKC-ε: −5%
PKC epsilon; 30.0 μM
  % Inhibition PKC-ε: 52%
PKC beta 1; 5.0 μM
  % Inhibition PKC-βI: 11%
PKC beta 1; 30.0 μM
  % Inhibition PKC-βI: 13.9%
PKC beta 1
  inhibition of PKC beta 1 activity (in words): not active
PKC delta; 2.5 μM
  % Inhibition PKC-δ: 26.2%
PKC delta
  inhibition of PKC delta activity (in words): exceptionally good inhibitor
PKC alpha; 15.0 μM
  % Inhibition PKC-α: 64.3%
PKC alpha; 30.0 μM
  % Inhibition PKC-α: 95.2%
PKC alpha
  inhibition of PKC alpha activity (in words): at a lesser extent

## CC[C@H](C)[C@H](NC(=O)[C@H](CO)NC(=O)[C@@H](NC(=O)CNC(=O)[C@@H](NC(=O)[C@H](CC(C)C)NC(=O)[C@H](CC(N)=O)NC(=O)[C@H](CCC(N)=O)NC(=O)[C@H](C)NC(=O)[C@H](CC(=O)OC)NC(=O)[C@H](CCCCN)NC(=O)CNC(=O)CNC(=O)CNC(=O)CNC(=O)CNC(=O)CNC(=O)CNC(=O)[C@H](CC(C)C)NC(=O)[C@H](CCCNC(=N)N)NC(=O)[C@H](Cc1ccccc1)NC(=O)[C@H](CCCCNC(=O)CN(CCN)C(=O)Cn1cnc2c(N)ncnc21)NC(=O)[C@H](CCCNC(=N)N)NC(=O)[C@H](CCCNC(=N)N)NC(=O)[C@H](Cc1ccccc1)NC(C)=O)[C@@H](C)CC)[C@@H](C)CC)C(N)=O [TIM 15] (Ac-FRRK(PNA(A))FRLGGGGGGGKD(OMe)AQNLIGISI-NH2)
PKC epsilon; 15.0 μM, read-out: % Inhibition PKC-ε
  inhibition at 15 µM: 9%
PKC epsilon; 30.0 μM, read-out: % Inhibition PKC-ε
  inhibition at 30 µM: 81%
PKC beta 1; 15.0 μM, read-out: % Inhibition PKC-βI
  inhibition at 15 µM: 18.8%
PKC beta 1; 30.0 μM, read-out: % Inhibition PKC-βI
  inhibition at 30 µM: -69%
PKC delta; 15.0 μM, read-out: % Inhibition PKC-δ
  inhibition at 15 µM: 18.6%
PKC delta; 30.0 μM, read-out: % Inhibition PKC-δ
  inhibition at 30 µM: 21.8%
PKC alpha; 15.0 μM, read-out: % Inhibition PKC-α
  inhibition at 15 µM: 32.1%
PKC alpha; 30.0 μM, read-out: % Inhibition PKC-α
  inhibition at 30 µM: 21.8%
[1]
  apoptosis of peripheral blood lymphocytes: do not induce apoptosis
  blastogenic response to mitogens: do not drastically limit the blastogenic response

## KDAQNLIGISL-NH2 [PRE 2]
PKC-β [2]; 75 μg
  Band Intensity: 0.800
  Inhibition (%): 31.0%
  Relative Intensity (%): 69.0%
PKC-β [2]; 300 μg
  Band Intensity: 0.403
  Inhibition (%): 65.3%
  Relative Intensity (%): 34.7%
PKC-α [3]; Example 3
  Inhibition (%): 99.9%
  Relative Intensity (%): 0.135%
PKC-α [3]; Example 3 (control 0.759)
  Band Intensity: 0.0103
PKC-α [4]; 75 μg
  Band Intensity: 0.917
  Inhibition (%): 56.1%
  Relative Intensity (%): 43.9%
PKC-α [4]; 300 μg
  Band Intensity: 0.192
  Inhibition (%): 90.9%
  Relative Intensity (%): 9.1%
PKC-β [5]
  Band Intensity: 0.0322
  Inhibition (%): 54.7%
  Relative Intensity (%): 45.3%

## Cn1c2ccccc2c2c3c(c4c5ccccc5n(CCC#N)c4c21)CNC3=O [Go6976]
PKC enzymes (cPKCs); 30 min
  inactivation of cPKCs (MARCKS phosphorylation): still very low
PKC enzymes (cPKCs); 24 h
  inactivation of cPKCs (phospho-MARCKS levels): obvious

## Ac—FRRCFRL—(G)7—AKGIQEVKGGDAQNLIGISI—NH2 (Ac-FRRCFRLGGGGGGGAKGIQEVKGGDAQNLIGISI-NH2) [TIM 18, PRE 3 and PKI 4]
PKC epsilon; Kinase-Glo
  inhibition of PKC epsilon activity (in words): no effect
PKC beta 1
  inhibition of PKC beta 1 activity (in words): inhibits the activity
PKC delta; 5.0 μM
  % Inhibition PKC-δ: 56.3%
PKC delta; 30.0 μM
  % Inhibition PKC-δ: 85.1%
PKC delta
  inhibition of PKC delta activity (in words): inhibits the activity
PKC alpha; 2.5 μM
  % Inhibition PKC-α: 16.4%
PKC alpha
  inhibition of PKC alpha activity (in words): very potent inhibitor

## COc1cccc2c1C(=O)c1c(O)c3c(c(O)c1C2=O)C[C@@](O)(C(=O)CO)C[C@@H]3O[C@H]1C[C@H](N)[C@H](O)[C@H](C)O1 [doxorubicin]
[6]
  cell survival: a large proportion of the cells survived
